These results are taken from patent US20200317768A1 (published 2020).

The target of assay [1] is T1, cynomolgus monkey FcγRIIb extracellular domain, C-terminal His-tag (cynomolgus monkey).
T1 construct: also called cyno FcγRIIb; cynoFcγRIIb; not shown: His-tag added to C-terminus
T1 chain: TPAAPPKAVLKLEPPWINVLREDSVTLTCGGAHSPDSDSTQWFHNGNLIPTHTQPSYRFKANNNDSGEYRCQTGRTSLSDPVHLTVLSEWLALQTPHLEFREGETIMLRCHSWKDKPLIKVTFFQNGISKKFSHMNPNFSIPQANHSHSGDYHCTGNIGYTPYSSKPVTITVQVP
Description: SPR (Biacore), antibody captured, FcgR analyte, 25 C.

Assay [2] deals with T2, human FcγRIIb extracellular domain, C-terminal His-tag (human, UniProt P31994 43-217).
T2 construct: also called FcgRIIb (human); not shown: His-tag added to C-terminus
T2 sequence: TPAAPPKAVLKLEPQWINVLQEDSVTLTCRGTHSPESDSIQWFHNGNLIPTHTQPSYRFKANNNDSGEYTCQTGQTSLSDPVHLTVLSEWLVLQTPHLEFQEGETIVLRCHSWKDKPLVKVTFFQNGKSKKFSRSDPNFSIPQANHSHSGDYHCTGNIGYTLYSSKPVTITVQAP
The assay is described as above.

Assay [3] has as its target T3, human FcγRIIaH extracellular domain, C-terminal His-tag (human, UniProt P12318 34-217).
T3 construct: also called human FcγRIIa (type H); FcgRIIaH; not shown: His-tag added to C-terminus
T3 sequence: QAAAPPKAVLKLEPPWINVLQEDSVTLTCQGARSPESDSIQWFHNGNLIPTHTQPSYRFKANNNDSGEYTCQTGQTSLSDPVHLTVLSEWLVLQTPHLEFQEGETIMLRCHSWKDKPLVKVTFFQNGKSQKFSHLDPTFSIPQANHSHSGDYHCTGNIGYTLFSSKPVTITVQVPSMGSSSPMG
The assay is described as above.

The target of assay [4] is T4, human FcγRIIIaV extracellular domain, C-terminal His-tag (human, UniProt P08637 17-208).
T4 construct: also called FcgRIIIaV; not shown: His-tag added to C-terminus
T4 sequence (P08637 17-208 F176V): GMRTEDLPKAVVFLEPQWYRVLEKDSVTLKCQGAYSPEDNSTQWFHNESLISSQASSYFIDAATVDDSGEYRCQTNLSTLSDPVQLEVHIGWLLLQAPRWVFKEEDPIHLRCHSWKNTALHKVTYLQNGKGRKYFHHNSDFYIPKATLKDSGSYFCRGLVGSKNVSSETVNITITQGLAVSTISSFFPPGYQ
The description is as above.

For assay [5], the target named is T5, human FcγRIIaR extracellular domain, C-terminal His-tag (human, UniProt P12318 34-217).
T5 construct: also called human FcγRIIa (type R); FcgRIIaR; not shown: His-tag added to C-terminus
T5 chain: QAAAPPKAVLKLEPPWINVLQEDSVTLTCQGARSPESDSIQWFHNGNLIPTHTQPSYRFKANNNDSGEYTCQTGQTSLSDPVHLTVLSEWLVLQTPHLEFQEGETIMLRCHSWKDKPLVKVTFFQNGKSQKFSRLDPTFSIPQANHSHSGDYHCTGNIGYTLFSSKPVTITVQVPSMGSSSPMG
Described as above.

In assay [6] the target is T6, cynomolgus monkey FcγRIIIaS extracellular domain, C-terminal His-tag (cynomolgus monkey, UniProt A3RFZ7 21-206 (rhesus entry)).
T6 construct: also called cyno FcγRIIIaS; cynoFcγRIIIaS; not shown: His-tag added to C-terminus
T6 sequence (A3RFZ7 21-206): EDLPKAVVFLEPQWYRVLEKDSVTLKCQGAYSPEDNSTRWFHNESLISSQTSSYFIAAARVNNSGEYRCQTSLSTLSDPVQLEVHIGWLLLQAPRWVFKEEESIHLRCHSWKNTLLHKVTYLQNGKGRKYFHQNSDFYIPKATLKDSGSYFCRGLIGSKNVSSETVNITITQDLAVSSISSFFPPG
The description is as above.

Assay [7] has as its target T7, cynomolgus monkey FcγRIIa3 extracellular domain, C-terminal His-tag (cynomolgus monkey).
T7 construct: also called cyno FcγRIIa3; cynoFcgRIIa3; not shown: His-tag added to C-terminus
T7 chain: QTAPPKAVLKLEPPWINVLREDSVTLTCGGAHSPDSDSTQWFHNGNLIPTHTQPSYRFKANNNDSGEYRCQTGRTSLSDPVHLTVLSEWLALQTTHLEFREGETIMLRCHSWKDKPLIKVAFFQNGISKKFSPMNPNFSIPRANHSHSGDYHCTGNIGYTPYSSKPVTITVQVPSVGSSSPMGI
The description is as above.

The target of assay [8] is T8, cynomolgus monkey FcγRIIa1 extracellular domain, C-terminal His-tag (cynomolgus monkey).
T8 construct: also called cyno FcγRIIa1; cynoFcgRIIa1; not shown: His-tag added to C-terminus
T8 chain: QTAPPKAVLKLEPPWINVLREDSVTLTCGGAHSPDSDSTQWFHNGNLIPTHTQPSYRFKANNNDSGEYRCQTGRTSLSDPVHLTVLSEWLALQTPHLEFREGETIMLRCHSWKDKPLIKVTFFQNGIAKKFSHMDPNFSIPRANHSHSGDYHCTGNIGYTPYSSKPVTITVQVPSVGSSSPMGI
The description is as above.

In assay [9] the target is T6, cynomolgus monkey FcγRIIIaS …. Put plainly: SPR (Biacore), KD of SG1 / KD of variant.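 Also: relative to parent M103205H795-SG1 carrying the SG1 human heavy chain constant region.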

B1: M103205H795-MY271/M103202L889-SK1 (antibody, human IgG1, kappa)
heavy: QVTLKESGPVLVKPTETLTLTCTVSGIDLSHDDISWVRQAPGKGLEWVGIISYAGSTYYASWAKGRLTISKDTSKNQVVLTMTNMDPVDTATYYCARGVPAYSHGGDLWGQGTLVTVSSASTKGPSVFPLAPSSKSTSGGTAALGCLVKDYFPEPVTVSWNSGALTSGVHTFPAVLQSSGLYSLSSVVTVPSSSLGTQTYICNVNHKPSNTKVDKKVEPKSCDKTHTCPPCPAPELLVGPSVFLFPPKPKDTLMISRTPEVTCVVVDVSDEDPEVKFNWYVDGVEVHNAKTKPREEQYNSTYRVVSVLTVLHQDWLNGKEYKCKVSNKALPKPIEKTISKAKGQPREPQVYTLPPSREEMTKNQVSLTCLVKGFYPSDIAVEWESNGQPENNYKTTPKVLDSDGSFFLYSKLTVDKSRWQQGNVFSCSVMHEALHNHYTQKSLSLSP
light: DIVMTQSPATLSLSPGERATLSCTSSQSVYHANWLSWFQQKPGQPPKLLIYWASTLAYGVPSRFSGSGSGTDFTLTISSLQPEDAATYYCAGGYGGGRYAFGQGTKVEIKRTVAAPSVFIFPPSDEQLKSGTASVVCLLNNFYPREAKVQWKVDNALQSGNSQESVTEQDSKDSTYSLSSTLTLSKADYEKHKVYACEVTHQGLSSPVTKSFNRGEC
Broadly, the Kd is the concentration at which binding is half-saturated. Regarding B1, the Kd in [1] is 190 nM; in assay [2] it was 2100 nM; in assay [3], 44 nM; in assay [4], 2300 nM; in assay [5] it was 2300 nM; in [6] it was 870 nM. Besides, the Kd is 3100 nM in assay [7] and 760 nM in assay [8]. Further, the “KD fold (SG1 = 1)” value in assay [9] was 0.41 fold.

B2: M103205H795-MY272/M103202L889-SK1 (antibody, human IgG1, kappa)
heavy: QVTLKESGPVLVKPTETLTLTCTVSGIDLSHDDISWVRQAPGKGLEWVGIISYAGSTYYASWAKGRLTISKDTSKNQVVLTMTNMDPVDTATYYCARGVPAYSHGGDLWGQGTLVTVSSASTKGPSVFPLAPSSKSTSGGTAALGCLVKDYFPEPVTVSWNSGALTSGVHTFPAVLQSSGLYSLSSVVTVPSSSLGTQTYICNVNHKPSNTKVDKKVEPKSCDKTHTCPPCPAPELLQGPSVFLFPPKPKDTLMISRTPEVTCVVVDVSDEDPEVKFNWYVDGVEVHNAKTKPREEQYNSTYRVVSVLTVLHQDWLNGKEYKCKVSNKALPKPIEKTISKAKGQPREPQVYTLPPSREEMTKNQVSLTCLVKGFYPSDIAVEWESNGQPENNYKTTPKVLDSDGSFFLYSKLTVDKSRWQQGNVFSCSVMHEALHNHYTQKSLSLSP
light: DIVMTQSPATLSLSPGERATLSCTSSQSVYHANWLSWFQQKPGQPPKLLIYWASTLAYGVPSRFSGSGSGTDFTLTISSLQPEDAATYYCAGGYGGGRYAFGQGTKVEIKRTVAAPSVFIFPPSDEQLKSGTASVVCLLNNFYPREAKVQWKVDNALQSGNSQESVTEQDSKDSTYSLSSTLTLSKADYEKHKVYACEVTHQGLSSPVTKSFNRGEC
B2: the Kd was determined as 430 nM in [1]; 1200 nM in assay [2]; 92 nM in assay [3]; 870 nM in assay [4]; 250 nM in assay [5]; 290 nM in assay [6]. The values for the dissociation constant Kd in [7] and in [8] were 6200 nM and 1900 nM, respectively. Besides, the “KD fold (SG1 = 1)” value in assay [9] amounted to 1.24 fold.
